Test [1] deals with T1, Human ULBP2 (recombinant) (human, UniProt Q9BZM5 26-217).
T1 construct: bought (R&D Systems) as ULBP2-Fc or ULBP2-His; also called recombinant ULBP2
T1 sequence: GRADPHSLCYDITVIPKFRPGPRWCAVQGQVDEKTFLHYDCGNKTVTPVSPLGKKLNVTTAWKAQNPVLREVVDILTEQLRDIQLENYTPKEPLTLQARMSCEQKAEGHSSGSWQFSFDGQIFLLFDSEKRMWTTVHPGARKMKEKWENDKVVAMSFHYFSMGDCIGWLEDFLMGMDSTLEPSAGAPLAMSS
Kind of test: sandwich ELISA, plate coated with antigen (legend paragraph 82 names no antigen; ULBP2 taken as the antigen of this antibody's target arm), luminescence (RLU).

Test [2] addresses T2, human CD3 epsilon (recombinant, plate-coated) (human, UniProt P07766 23-126).
T2 construct: also called CD3ε; Hu CD3 epsilon
Kind of test: sandwich ELISA, plate coated with CD3ε, luminescence (RLU). Background: In an ELISA, binding on a coated surface is turned into a signal by an enzyme label.

The target of test [3] is T3, human CD3 epsilon/delta heterodimer, biotin labeled (human, UniProt P04234 22-105, biotin labeled).
T3 construct: bought (Acro Biosystems); also called Human CD3e/d
Kind of test: SPR, biotinylated CD3e/d on SA chip. (In general: In SPR one partner is held on a chip, and binding of the other changes the refractive index at the surface.)

Test [4] has as its target T4, cynomolgus CD3 epsilon/delta heterodimer, biotin labeled (cynomolgus, UniProt Q95LI8 22-105, biotin labeled).
T4 construct: bought (Acro Biosystems); also called Cyno CD3e/d
Briefly: SPR, biotinylated CD3e/d on SA chip.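 Also: analytes injected over immobilized CD3 heterodimer, association 60-120 s and dissociation 120-420 s, rate and affinity constants obtained by fitting sensorgrams to a 1:1 binding model.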

In the next test the target is EGFR (UniProt P00533 25-645, limits assumed). Briefly: sandwich ELISA, plate coated with antigen (legend paragraph 82 names no antigen; EGFR taken as the antigen of the cetuximab arm), luminescence (RLU).

T4 sequence (chain, as listed by the source mutant, chain 1 of 2): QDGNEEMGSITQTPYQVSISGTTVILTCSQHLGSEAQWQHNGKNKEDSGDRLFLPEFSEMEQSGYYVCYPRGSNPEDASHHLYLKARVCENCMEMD
T4 sequence (Q95LI8 22-105, stated change not applied, chain 2 of 2): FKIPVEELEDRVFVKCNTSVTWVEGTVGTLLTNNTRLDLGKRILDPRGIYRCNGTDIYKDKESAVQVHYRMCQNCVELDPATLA

B1: EIP0504 (bispecific antibody, V domains shown)
VH 1: EVQLLESGGGLVQPGGSLKLSCAASGFTFNTYAMNWVRKAPGKGLEWVARIRSKYNNYATYYADSVKDRFTISRDDSKNTAYLQMNNLKTEDTAVYYCVRHGNFGNSYVSWFAYWGQGTLVTVSS
VL 1: ELVVTQEPSLTVSPGGTVTLTCRSSTGAVTTSNYANWVQDKPGQAPRGLIGGTNKRAPGTPARFSGSLLGGKAALTLSGVQPEDEAEYYCALWYSNLWVFGGGTKLTVL
VH 2: EVQLVQSGAEVKKPGESLKISCKGSGYAFSTSWMNWVRQMPGKGLEWMGRIYPGDGDTNYNGNFKGQVTISADKSISTAYLQWSSLKASDTAMYYCARGGELRLEAMDSWGQGTLVTVSS
VL 2: EIVMTQSPATLSLSPGERITLSCSASSSIHSNYLHWYQQKPGQAPRLLIYRTSNLASGIPARFSGSGSGTDFTLTISSLQPEDFAVYYCQQGFSIPFTFGQGTKLEIK
notes: also called ULBP2(A06)-SP34; EV104.2:CD3.1
Take B1: the EC50 (read off the curve) (as a rule, the concentration needed to bring the measured effect to its halfway point) was around 0.6 µg/mL in test [1] and around 0.4 µg/mL in test [2].

B2: ULBP2xCD3 bispecific CD58 fusion containing CD3 variant CD3-01 (bispecific antibody, V domains shown)
VH: EVQLLESGGGLVQPGGSLKLSCAASGFTFNTYAMNWVRKAPGKGLEWVARIRSKYNNYATYYADSVKDRFTISRDDSKNTAYLQMNNLKTEDTAVYYCVRHGNFGNSYVSWFAYWGQGTLVTVSS
VL: ELVVTQEPSLTVSPGGTVTLTCRSSTGAVTTSNYANWVQDKPGQAPRGLIGGTNKRAPGTPARFSGSLLGGKAALTLSGVQPEDEAEYYCALWYSNLWVFGGGTKLTVL
Regarding B2, in test [3], the Kd – broadly, the free concentration of one partner at which half of the binding sites on the other are occupied at equilibrium, for simple one-to-one binding – is 4.7 nM; the koff (usually the rate constant with which the complex falls apart) was 0.00819 s⁻¹; the kon – broadly, the rate constant with which the complex forms – worked out at 1.76e+06 M⁻¹ s⁻¹. In test [4], this molecule gave a Kd of 3.2 nM, a koff of 0.00515 s⁻¹ and a kon of 1.6e+06 M⁻¹ s⁻¹.

B3: ULBP2xCD3 bispecific CD58 fusion containing CD3 variant CD3-A8 (bispecific antibody, V domains shown)
VH: EVQLLESGGGLVQPGGSLKLSCAASGFTFNTYAMNWVRKAPGKGLEWVAKIRSKYNNYATYYADSVKDRFTISRDDSKNTAYLQMNNLKTEDTAVYYCVRHGNFGDSYVSWFAYWGQGTLVTVSS
VL: ELVVTQEPSLTVSPGGTVTLTCRSSTGAVTTSNYANWVQDKPGQAPRGLIGGTNKRAPGTPARFSGSLLGGKAALTLSGVQPEDEAEYYCALWYSQLWVFGGGTKLTVL
In test [3], B3 registered an equilibrium dissociation constant (Kd) of 147 nM, a koff of 0.0635 s⁻¹ and a kon of 432000 M⁻¹ s⁻¹. In test [4], this molecule came in with a Kd of 137 nM, a koff of 0.0614 s⁻¹ and a kon of 448000 M⁻¹ s⁻¹.

B4: ULBP2xCD3 bispecific CD58 fusion containing CD3 variant CD3-A6 (bispecific antibody, V domains shown)
VH: EVQLLESGGGLVQPGGSLKLSCAASGFTFNDYAMNWVRKAPGKGLEWVARIRSKYNNYATYYADSVKDRFTISRDDSKNTAYLQMNNLKTEDTAVYYCVRHGNFGNSYVSWFAYWGQGTLVTVSS
VL: ELVVTQEPSLTVSPGGTVTLTCRSSTGAVTTSNYANWVQDKPGQAPRGLIGGTNKRAPGTPARFSGSLLGGKAALTLSGVQPEDEAEYYCALWYSNLWVFGGGTKLTVL
With B4, in test [3], the Kd is 75 nM, the koff is 0.0479 s⁻¹ and the kon worked out at 640000 M⁻¹ s⁻¹. In test [4], this molecule gave a Kd of 75 nM, a koff of 0.0418 s⁻¹ and a kon of 558000 M⁻¹ s⁻¹.

B5: ULBP2xCD3 bispecific CD58 fusion containing CD3 variant CD3-A5 (bispecific antibody, V domains shown)
VH: EVQLLESGGGLVQPGGSLKLSCAASGFTFNTYAMNWVRKAPGKGLEWVARIRSKYNNYATYYADSVKDRFTISRDDSKNTAYLQMNNLKTEDTAVYYCVRHGNFGDDYVSWFAYWGQGTLVTVSS
VL: ELVVTQEPSLTVSPGGTVTLTCRSSTGAVTTSNYANWVQDKPGQAPRGLIGGTNKRAPGTPARFSGSLLGGKAALTLSGVQPEDEAEYYCALWYSQLWVFGGGTKLTVL
In test [3], B5 showed a Kd of 354 nM, a koff of 0.0245 s⁻¹ and a kon of 69200 M⁻¹ s⁻¹. For the same molecule, in test [4], binding was put at a Kd of 368 nM, the koff was determined as 0.0337 s⁻¹ and the kon is 91700 M⁻¹ s⁻¹.

B6: ULBP2xCD3 bispecific CD58 fusion containing CD3 variant CD3-A9 (bispecific antibody, V domains shown)
VH: EVQLLESGGGLVQPGGSLKLSCAASGFTFNTYAMNWVRKAPGKGLEWVARIRSKYNNYATYYADSVKDRFTISRDDSKNTAYLQMNNLKTEDTAVYYCVRHGSFGNSYVSWFAYWGQGTLVTVSS
VL: ELVVTQEPSLTVSPGGTVTLTCRSSTGAVTTSNYANWVQDKPGQAPRGLIGGTNKRAPGTPARFSGSLLGGKAALTLSGVQPEDEAEYYCALWYSQLWVFGGGTKLTVL
In test [3], B6 gave a Kd of 155 nM, a koff of 0.101 s⁻¹ and a kon of 654000 M⁻¹ s⁻¹. In test [4], this molecule displayed a Kd of 212 nM, a koff of 0.0718 s⁻¹ and a kon of 338000 M⁻¹ s⁻¹.

B7: ULBP2xCD3 bispecific CD58 fusion containing CD3 variant CD3-A2 (bispecific antibody, V domains shown)
VH: EVQLLESGGGLVQPGGSLKLSCAASGFTFNTYAMNWVRKAPGKGLEWVARIRSKYNNYATYYADSVKDRFTISRDDSKNTAYLQMNNLKTEDTAVYYCVRHGNFGNSYVSWFAYWGQGTLVTVSS
VL: ELVVTQEPSLTVSPGGTVTLTCRSSTGAVTTSNYANWVQDKPGQAPRGLIGDTNKRAPGTPARFSGSLLGGKAALTLSGVQPEDEAEYYCALWYSNLWVFGGGTKLTVL
On to B7, for which, in test [3], the Kd was 102 nM, the koff amounted to 0.0263 s⁻¹ and the kon was 257000 M⁻¹ s⁻¹. In test [4], binding was characterised by a dissociation constant (Kd) of 89 nM, the koff came out at 0.0227 s⁻¹ and the kon was 256000 M⁻¹ s⁻¹.

B8: EIP0373 (bispecific antibody)
heavy 1: EVQLLESGGGLVQPGGSLKLSCAASGFTFNTYAMNWVRKAPGKGLEWVARIRSKYNNYATYYADSVKDRFTISRDDSKNTAYLQMNNLKTEDTAVYYCVRHGNFGNSYVSWFAYWGQGTLVTVSSASTKGPSVFPLAPSSKSTSGGTAALGCLVKDYFPEPVTVSWNSGALTSGVHTFPACLQSSGLYSLSSVVTVPSSSLGTQTYICNVNHKPSNTKVDKKVEPKSSDKTHTCPPCPAPEAAGAPSVFLFPPKPKDTLMISRTPEVTCVVVDVSHEDPEVKFNWYVDGVEVHNAKTKPREEQYNSTYRVVSVLTVLHQDWLNGKEYKCKVSNKALPAPIEKTISKAKGQPREPQVCTLPPSREEMTKNQVSLSCAVKGFYPSDIAVEWESNGQPENNYKTTPPVLDSDGSFFLVSKLTVDKSRWQQGNVFSCSVMHEALHNHYTQKSLSLSPG
light 1: ELVVTQEPSLTVSPGGTVTLTCRSSTGAVTTSNYANWVQDKPGQAPRGLIGGTNKRAPGTPARFSGSLLGGKAALTLSGVQPEDEAEYYCALWYSNLWVFGGGTKLTVLGQPKANPTVTLFPPSSEELQANKADLVCLISDFYPGAVTVAWKADGSPVKAGVETCKPSKQSNNKYAASSYLSLTPEQWKSHRSYSCQVTHEGSTVEKTVAPTESS
heavy 2: not shown
light 2: not shown
notes: IgG1 bispecific, pairing set D; also called EGFR(Cetuximab)-SP34; V373
For B8, the “EC50 (read off the curve)” value (with EGFR; in test [2]) was around 0.3 µg/mL throughout.

B9: EIP0506 (bispecific antibody, human IgG1, kappa, lambda)
heavy 1: EVQLLESGGGLVQPGGSLKLSCAASGFTFNTYAMNWVRKAPGKGLEWVARIRSKYNNYATYYADSVKDRFTISRDDSKNTAYLQMNNLKTEDTAVYYCVRHGNFGNSYVSWFAYWGQGTLVTVSSASTKGPSVFPLAPSSKSTSGGTAALGCLVKDYFPEPVTVSWNSGALTSGVHTFPACLQSSGLYSLSSVVTVPSSSLGTQTYICNVNHKPSNTKVDKKVEPKSSDKTHTCPPCPAPEAAGAPSVFLFPPKPKDTLMISRTPEVTCVVVDVSHEDPEVKFNWYVDGVEVHNAKTKPREEQYNSTYRVVSVLTVLHQDWLNGKEYKCKVSNKALPAPIEKTISKAKGQPREPQVCTLPPSREEMTKNQVSLSCAVKGFYPSDIAVEWESNGQPENNYKTTPPVLDSDGSFFLVSKLTVDKSRWQQGNVFSCSVMHEALHNHYTQKSLSLSPG
light 1: ELVVTQEPSLTVSPGGTVTLTCRSSTGAVTTSNYANWVQDKPGQAPRGLIGGTNKRAPGTPARFSGSLLGGKAALTLSGVQPEDEAEYYCALWYSNLWVFGGGTKLTVLGQPKANPTVTLFPPSSEELQANKADLVCLISDFYPGAVTVAWKADGSPVKAGVETCKPSKQSNNKYAASSYLSLTPEQWKSHRSYSCQVTHEGSTVEKTVAPTESS
heavy 2: QVQLVQSGAEVKKPGSSVKVSCKASGGTFSNYWMHWVRDAPGQGLEWMGATYRGHSDTYYNQKFKGRVTITADKSTSTAYMELSSLRSEDTAVYYCARGAIYDGYDVLDNWGQGTLVTVSSASTKGPSVFPLAPSSKSTSGGTAALGCLVDDYFPEPVTVSWNSGALTSGVHTFPAVLQSSGLYSLSSVVTVPSSSLGTQTYICNVNHKPSNTKVDKKVEPKSCDKTHTCPPCPAPEAAGAPSVFLFPPKPKDTLMISRTPEVTCVVVDVSHEDPEVKFNWYVDGVEVHNAKTKPREEQYNSTYRVVSVLTVLHQDWLNGKEYKCKVSNKALPAPIEKTISKAKGQPREPQVYTLPPCREEMTKNQVSLWCLVKGFYPSDIAVEWESNGQPENNYKTTPPVLDSDGSFFLYSKLTVDKSRWQQGNVFSCSVMHEALHNHYTQKSLSLSPG
light 2: not shown
notes: IgG1 bispecific, pairing set D; also called BCMA(Belantamab)-SP34; V506
Take B9: the “EC50 (read off the curve)” value in test [2] was around 0.5 µg/mL.
